{"source": "patent US20190177380", "about": "“SYNTHETIC MBNL PROTEINS FOR TREATMENT OF REPEAT EXPANSION DISEASE” (University of Florida Research Foundation, Incorporated, published 2019)", "key": {"[1]": {"molecular_target": "T1, TRBP dsRBD2 (TARBP2) (Homo sapiens) (UniProt Q15633)", "T1 sequence": "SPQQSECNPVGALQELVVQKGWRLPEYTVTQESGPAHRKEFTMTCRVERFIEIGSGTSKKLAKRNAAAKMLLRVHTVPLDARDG", "settings": "CITED; isolated dsRBD2; cited from earlier work"}, "[2]": {"molecular_target": "T2, Xlrbpa dsRBD2 (printed Xlbpra) (Xenopus laevis) (UniProt Q91836)", "T2 sequence": "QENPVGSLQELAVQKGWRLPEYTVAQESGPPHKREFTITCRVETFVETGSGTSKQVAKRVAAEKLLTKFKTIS", "settings": "CITED; isolated dsRBD2; cited from earlier work"}, "[3]": {"molecular_target": "T3, WT-MBNL1 (truncated, aa 1-260 with HA tag and SV40 NLS) (Homo sapiens, UniProt Q9NR56 SEQ:14-272)", "T3 chain": "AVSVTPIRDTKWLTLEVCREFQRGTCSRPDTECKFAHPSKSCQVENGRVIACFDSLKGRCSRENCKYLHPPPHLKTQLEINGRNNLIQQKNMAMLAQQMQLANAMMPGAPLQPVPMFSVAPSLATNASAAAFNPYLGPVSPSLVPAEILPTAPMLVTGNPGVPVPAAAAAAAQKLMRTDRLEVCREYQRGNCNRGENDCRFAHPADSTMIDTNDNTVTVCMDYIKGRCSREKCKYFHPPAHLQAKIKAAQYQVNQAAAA", "test": "EMSA; 115 mM NaCl, 20 mM Tris pH 7.5, 5 mM MgCl2, heparin, room temperature; apparent Kd; repeated with another batch in FIG. 10C", "settings": "label: 5'-32P; short hairpin (predicted)", "text": "(§1) All synthetic MBNL1 proteins were expressed and purified as N-terminal glutathione S-transferase (GST) fusions (FIG. 4A). These proteins were then used in electrophoretic mobility shift assays (EMSAs) with CUG₄ RNA substrate. The fraction of radiolabeled RNA bound to the protein was used to determine an apparent KD (dissociation constant). […] (FIG. 4B).\n(§2) All RNA substrates were ordered from IDT (Coralville, Iowa) or Dharmacon (Lafayette, Colo.) and 5′ end-labelled using T4 PNK (NEB, Ipswich, Mass.) with [γ-³²P] ATP. All RNAs were purified on 10% polyacrylamide denaturing gels. Prior to incubation with protein, these RNAs were denatured by incubation at 95° C. for 2 minutes followed by a 5 minute incubation on ice. Once cooled the RNA was mixed with increasing concentrations of protein (final volume=10 μl) to yield final reaction conditions of 115 mM NaCl, 20 mM Tris pH 7.5, 1 mM β-ME, 0.01 mM EDTA, 10% glycerol, 5 mM MgCl₂, 0.1 mg/ml heparin, 2 mg/ml bovine serum albumin (BSA), and 0.02% xylene cyanol. […] Binding curves were quantified using ImageQuant software (GE Healthcare Life Sciences, Pittsburgh, Pa.). The fraction of RNA bound was calculated as the ratio of all RNA-protein complexes divided by total RNA signal in each lane. The apparent Kd was then determined using the following equation: fbound=fₘₐₓ([MBNL1]/([MBNL1+Kd))."}, "[4]": {"molecular_target": "T4, MBNL1(3-4,3-4) (Homo sapiens)", "T4 chain": "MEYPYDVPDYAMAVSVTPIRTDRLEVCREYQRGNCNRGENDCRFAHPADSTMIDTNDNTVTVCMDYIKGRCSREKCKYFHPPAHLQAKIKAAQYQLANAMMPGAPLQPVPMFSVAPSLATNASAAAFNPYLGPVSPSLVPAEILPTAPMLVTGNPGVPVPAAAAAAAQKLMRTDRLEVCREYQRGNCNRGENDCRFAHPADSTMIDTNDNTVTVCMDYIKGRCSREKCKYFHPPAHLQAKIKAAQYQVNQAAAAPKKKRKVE", "test": "EMSA; 115 mM NaCl, 20 mM Tris pH 7.5, 5 mM MgCl2, heparin, room temperature; apparent Kd", "settings": "label: 5'-32P; short hairpin (predicted)", "text": "as §1, §2"}, "[5]": {"molecular_target": "T5, MBNL1(1-2,1-2) (Homo sapiens)", "T5 chain": "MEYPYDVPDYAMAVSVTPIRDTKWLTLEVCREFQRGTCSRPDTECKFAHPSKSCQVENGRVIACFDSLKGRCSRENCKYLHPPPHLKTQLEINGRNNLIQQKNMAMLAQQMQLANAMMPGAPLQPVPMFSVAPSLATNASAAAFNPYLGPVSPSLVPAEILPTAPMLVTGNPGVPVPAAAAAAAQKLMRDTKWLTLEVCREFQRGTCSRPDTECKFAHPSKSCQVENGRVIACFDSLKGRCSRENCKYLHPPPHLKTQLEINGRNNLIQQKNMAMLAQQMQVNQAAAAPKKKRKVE", "test": "EMSA; 115 mM NaCl, 20 mM Tris pH 7.5, 5 mM MgCl2, heparin, room temperature; apparent Kd", "settings": "label: 5'-32P; short hairpin (predicted)", "text": "as §1, §2"}}, "data": [{"molecule": "HIV TAR RNA", "values": [{"measurement": "Kd", "setting": "[1]", "result": 59, "unit": "nM"}]}, {"molecule": "30 bp synthetic dsRNA", "values": [{"measurement": "Kd", "setting": "[2]", "result": 11, "unit": "nM"}]}, {"molecule": "GCUGCUGUUCGCUGCUG (ssRNA)", "note": "[CUG4]", "values": [{"measurement": "Kd", "setting": "[3]", "result": 196, "unit": "nM"}, {"measurement": "Kd", "setting": "[4]", "result": 257, "unit": "nM"}, {"measurement": "Kd", "setting": "[5]", "result": 269, "unit": "nM"}]}]}
